Assay results as given in PMC5383250.

Experiments:
[1] = target: RNase J2 (Bacillus subtilis) (UniProt O31760); conditions: cited from earlier work
[2] = target: E. faecalis RNase J1 (Enterococcus faecalis (strain OG1RF)); assay: SPR; Biacore T100; E. faecalis RNase J1 immobilized on a CM5 sensor surface; J2 proteins 400 to 50 nM in duplicate; fitted to the 1:1 binding model

Sequence of RNase J1 (Q45493 whole entry): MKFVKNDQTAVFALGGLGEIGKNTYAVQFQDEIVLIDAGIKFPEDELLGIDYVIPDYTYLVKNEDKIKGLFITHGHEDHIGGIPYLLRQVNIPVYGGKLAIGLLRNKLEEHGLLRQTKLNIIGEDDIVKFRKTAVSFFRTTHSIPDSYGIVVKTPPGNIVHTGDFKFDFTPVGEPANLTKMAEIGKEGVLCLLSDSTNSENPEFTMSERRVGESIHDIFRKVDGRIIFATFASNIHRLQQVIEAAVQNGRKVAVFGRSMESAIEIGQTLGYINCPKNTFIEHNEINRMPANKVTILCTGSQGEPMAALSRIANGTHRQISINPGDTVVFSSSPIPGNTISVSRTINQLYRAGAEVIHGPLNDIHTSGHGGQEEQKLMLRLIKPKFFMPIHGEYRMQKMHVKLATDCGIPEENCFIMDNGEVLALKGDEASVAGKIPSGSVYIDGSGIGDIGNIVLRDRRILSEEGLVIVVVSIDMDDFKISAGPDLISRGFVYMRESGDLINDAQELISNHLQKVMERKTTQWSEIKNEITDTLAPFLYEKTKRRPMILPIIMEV

Substance | Kd [1] [nM] | Kd [2] [nM]
RNase J1 (from UniProt Q45493) | 80 | 
E. faecalis RNase J2 H71A (enzyme) |  | 89
E. faecalis RNase J2 H69A (enzyme) |  | 81
